# Measured values: US20220396813
# Positions count from the first letter of the chain named.
# What was measured:
# Assay in all cases: cell_activity
# [1] = system: T1, Rec29 WP_089415106.1 (Pantoea agglomerans); conditions: HEK293T inversion; background 1.305
# T1 sequence: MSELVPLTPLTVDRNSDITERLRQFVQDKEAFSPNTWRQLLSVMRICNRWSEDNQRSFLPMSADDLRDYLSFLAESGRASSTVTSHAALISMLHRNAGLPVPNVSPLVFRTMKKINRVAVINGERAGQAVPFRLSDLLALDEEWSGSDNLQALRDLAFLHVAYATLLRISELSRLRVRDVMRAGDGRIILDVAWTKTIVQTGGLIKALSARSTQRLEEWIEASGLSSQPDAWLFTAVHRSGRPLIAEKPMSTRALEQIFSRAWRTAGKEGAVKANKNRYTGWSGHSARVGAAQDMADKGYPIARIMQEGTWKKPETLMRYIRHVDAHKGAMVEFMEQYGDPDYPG
# Rec142 = biological target: T2, Rec142 (UniProt A0A0J6VB22); conditions: HEK293T inversion; background 4.4
# T2 sequence: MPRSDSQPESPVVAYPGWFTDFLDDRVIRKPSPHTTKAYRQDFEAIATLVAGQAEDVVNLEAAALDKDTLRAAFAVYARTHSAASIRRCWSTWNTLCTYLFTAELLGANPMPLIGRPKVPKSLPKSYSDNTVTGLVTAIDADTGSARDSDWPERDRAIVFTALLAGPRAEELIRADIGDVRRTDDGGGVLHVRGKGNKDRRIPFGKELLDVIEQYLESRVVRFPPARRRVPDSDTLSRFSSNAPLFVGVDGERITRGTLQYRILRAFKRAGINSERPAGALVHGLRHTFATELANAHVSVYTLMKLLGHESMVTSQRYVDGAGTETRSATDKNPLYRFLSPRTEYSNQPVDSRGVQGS
# Rec19 WP_058958135.1 = system: T3, Rec19 WP_058958135.1; conditions: HEK293T inversion; background 0.0065
# T3 sequence: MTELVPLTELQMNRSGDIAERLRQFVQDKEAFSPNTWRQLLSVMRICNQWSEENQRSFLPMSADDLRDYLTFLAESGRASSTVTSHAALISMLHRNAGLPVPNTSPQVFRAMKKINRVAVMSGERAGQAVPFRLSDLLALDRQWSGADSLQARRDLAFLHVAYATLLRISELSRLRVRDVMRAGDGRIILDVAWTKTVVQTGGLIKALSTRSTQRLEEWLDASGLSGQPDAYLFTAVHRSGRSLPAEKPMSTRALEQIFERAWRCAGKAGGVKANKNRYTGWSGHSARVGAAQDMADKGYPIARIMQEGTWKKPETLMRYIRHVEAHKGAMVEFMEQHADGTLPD
# [2] = system: T4, Rec20 WP_090967054.1 (Pantoea sp. OV426); conditions: HEK293T inversion; background 4.93
# T4 sequence: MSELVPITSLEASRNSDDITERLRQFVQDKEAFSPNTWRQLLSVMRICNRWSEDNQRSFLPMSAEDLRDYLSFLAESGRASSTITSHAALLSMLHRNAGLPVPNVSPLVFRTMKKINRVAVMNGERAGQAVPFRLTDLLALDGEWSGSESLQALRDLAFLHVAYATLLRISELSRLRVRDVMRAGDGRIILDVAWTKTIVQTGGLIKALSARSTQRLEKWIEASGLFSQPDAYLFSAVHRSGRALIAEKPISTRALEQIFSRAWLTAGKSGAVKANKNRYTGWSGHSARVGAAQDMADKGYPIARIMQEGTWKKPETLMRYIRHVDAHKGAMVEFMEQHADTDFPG
# [3] = system: T5, Rec30 WP_022624268.1 (Pantoea sp.); conditions: HEK293T inversion; background 1.305
# T5 sequence: T1 sequence with G98E, E142K
# [4] = system: T6, Rec31 WP_046103089.1 (Pantoea anthophila); conditions: HEK293T inversion; background 1.305
# T6 sequence: T3 sequence with S135T, G341D, T342A
# [5] = system: T7, Rec36 WP_111534863.1 (Pantoea sp.); conditions: HEK293T inversion; background 6.6
# T7 sequence: T1 sequence with G345D
# [6] = system: T8, Rec35 WP_134161939.1 (Pantoea allii); conditions: HEK293T inversion; background 6.6
# T8 sequence: T1 sequence with L10Q, S135T, E142K, S145A, A210T, L225I, A231V, A254S, G339S
# [7] = system: T9, Rec32 WP_069027120.1 (Pantoea agglomerans); conditions: HEK293T inversion; background 6.6
# T9 sequence: T1 sequence with R49C, E75Q, S135T, E142K, S145A, A210T, L225I, L244Q, A254S, G339S
# [8] = system: T10, Rec33 WP_010671927.1 (Pantoea sp.); conditions: HEK293T inversion; background 6.6
# T10 sequence: T1 sequence with E142K
# [9] = system: T11, Rec37 WP_128085508.1 (Pantoea deleyi); conditions: HEK293T inversion; background 6.6
# T11 sequence: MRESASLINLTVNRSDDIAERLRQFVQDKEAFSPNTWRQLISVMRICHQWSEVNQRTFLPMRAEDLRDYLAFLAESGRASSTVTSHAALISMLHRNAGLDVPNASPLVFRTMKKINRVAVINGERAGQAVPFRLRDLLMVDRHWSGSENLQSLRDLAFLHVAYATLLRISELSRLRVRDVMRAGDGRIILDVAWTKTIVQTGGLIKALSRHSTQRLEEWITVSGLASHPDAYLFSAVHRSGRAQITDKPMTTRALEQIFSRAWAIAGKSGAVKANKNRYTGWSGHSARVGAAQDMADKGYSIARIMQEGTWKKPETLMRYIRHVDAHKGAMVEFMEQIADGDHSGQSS
# [10] = system: T12, Rec38 WP_115764642.1 (Pantoea agglomerans); conditions: HEK293T inversion; background 6.6
# T12 sequence: T1 sequence with T11M, S135T, E142K, S145A, D148E, A152S, A210T, L225I, A254S, G339S
# [11] = system: T13, Rec39 WP_111138305.1 (Pantoea sp. ARC607); conditions: HEK293T inversion; background 6.6
# T13 sequence: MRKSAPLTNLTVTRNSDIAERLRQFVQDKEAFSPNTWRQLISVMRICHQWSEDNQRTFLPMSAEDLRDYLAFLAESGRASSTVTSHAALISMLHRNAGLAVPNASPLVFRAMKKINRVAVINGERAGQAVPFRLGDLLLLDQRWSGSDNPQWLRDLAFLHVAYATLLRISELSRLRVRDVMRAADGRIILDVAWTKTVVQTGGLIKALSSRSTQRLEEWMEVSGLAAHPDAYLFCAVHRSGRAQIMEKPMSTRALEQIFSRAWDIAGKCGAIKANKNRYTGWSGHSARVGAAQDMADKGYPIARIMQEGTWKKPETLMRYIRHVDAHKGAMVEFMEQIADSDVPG
# [12] = system: T14, Rec34 WP_109653747.1 (Pantoea agglomerans); conditions: HEK293T inversion; background 6.6
# T14 sequence: T1 sequence with S135T, E142K, S145A, A210T, L225I, A254S, G339S
# [13] = system: T15, Rec15 XP_012333305.1 (Plasmodium fragile); conditions: HEK293T inversion; background 2.178
# T15 sequence: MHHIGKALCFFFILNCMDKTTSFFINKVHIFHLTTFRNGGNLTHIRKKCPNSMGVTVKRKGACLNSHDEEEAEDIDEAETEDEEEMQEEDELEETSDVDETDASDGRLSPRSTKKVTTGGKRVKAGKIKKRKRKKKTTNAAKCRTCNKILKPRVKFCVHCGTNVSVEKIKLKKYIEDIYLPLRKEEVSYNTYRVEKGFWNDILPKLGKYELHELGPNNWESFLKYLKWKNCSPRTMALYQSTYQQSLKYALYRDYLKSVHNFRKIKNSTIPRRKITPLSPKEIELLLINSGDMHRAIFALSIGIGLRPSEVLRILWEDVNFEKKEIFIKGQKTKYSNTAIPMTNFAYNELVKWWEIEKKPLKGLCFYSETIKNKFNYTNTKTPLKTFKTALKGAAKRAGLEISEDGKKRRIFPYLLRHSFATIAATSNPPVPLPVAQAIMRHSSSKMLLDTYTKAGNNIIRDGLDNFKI
# Rec83 = conditions: HEK293T inversion; background 5.425
# Rec82 = conditions: HEK293T inversion; background 5.03
sequence,measurement,setting,value
ATGACTTCGTATANNNNNNNNTATACGAAGTCAT (double strand) [Rec29 natural site],activity,[1],36.9 % GFP+
CCGTCATGGATANNNNNNNNTATCCATGAAGC (double strand) [Rec142 natural site],activity,Rec142,20.2 % GFP+
TGACTTCGTATANNNNNNNNTATACGAAGCCA (double strand) [Rec19-20 natural site],activity,Rec19 WP_058958135.1,63.6 % GFP+
same,activity,[2],70.7 % GFP+
TGACTTCGTATANNNNNNNNTATACGAAGTCA (double strand) [Rec30-39 natural site],activity,[3],32.1 % GFP+
same,activity,[4],21.3 % GFP+
same,activity,[5],44.2 % GFP+
same,activity,[6],52 % GFP+
same,activity,[7],60 % GFP+
same,activity,[8],51 % GFP+
same,activity,[9],40 % GFP+
same,activity,[10],44.5 % GFP+
same,activity,[11],42 % GFP+
same,activity,[12],50.6 % GFP+
TGCATATACATANNNNNNNNTATATATATGTA (double strand) [Rec15 natural site],activity,[13],5.91 % GFP+
TGTGACTCCAGANNNNNNNNNTCTGGAGTCATA (double strand) [Rec82-83 natural site],activity,Rec83,65.2 % GFP+
same,activity,Rec82,59 % GFP+
